Results as given in the RNAGym collection of RNA variant scans (doi:10.1073/pnas.2313332121).
This sample holds only a part of the variants without activity.

B1: TPR 5TU (parent)
chain: GGAUCUUCUCGAUCUAACAAAAAAGACAAAUCUGCCACAAAGCUUGAGAGCAUCUUCGGAUGCAGAGGCGGCAGCCUUCGGUGGCGCGAUAGCGCCAACGUUCUCAACUAUGACACGCAAAACGCGUGCUCCGUUGAAUGGAGUUUAUCAUG

Variants of: B1
Test: polymerase ribozyme fitness, log enrichment relative to wild type (log ratio); higher = more active; in vitro selection for triplet polymerase activity
Outline: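 Mutant libraries were PCR-built and transcribed for each subunit of a heterodimeric triplet polymerase ribozyme and selected for one round in triplicate at −7 °C, frozen, before gel excision of extended constructs and streptavidin-bead capture. Input and output libraries were Illumina-sequenced, keeping genotypes with ≥10 input reads and ≥1 read per output. Fitness is a logarithmic ratio of genotype to wild-type enrichment, in base 2, using inverse-variance-weighted replicate averages.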

Variant	polymerase ribozyme fitness (log ratio)
GGAUCUUCUCGAUCUAACAAAAAAGACAAAUCUGCCACAAAGCUUGAGAGCAUCUUCGGAUGCAGAGGCGGCAGCCUUCGGUGGCGCGAUAGAGCCAACGUUCUCAACUUUGACACGCAAAACGCGUGCUCCGUUGAAUGGAGUUUAUCAUG [C93A A110U]	-3.99
GGAUCUUCUCGAUCUAACAAAAAAGACAAAUCUGCCACAAAGCUUGAGAGCAUUUCCGGAUGCAGAGGCGGCAGCCUUCGGUGGCGCGAUAGUGCCAACGUUCUCAACUAUGACACGCAAAACGCGUGCUCCGUUGAAUGGAGUUUAUCUUG [C54U U56C C93U A150U]	0.278
GGAUCUUCUCGAUCUAACAAAAAAGACAAUUCUGCCACAAAGCUUGAGAGCCUCUUCGGAUGCAGAAACGGCAGCCUUCGGUGGCGUGAUGGCGGCAACGUUCUCAACUAUGACACGCAAAACGCGCGCUCCGUUGAAUGGAUUUUAGCAUG [A30U A52C G67A G68A C87U A91G C95G U127C G143U U148G]	≤ -4.2
GGAUCUUCUCGAUCUAACAUAAAAGACAAAUCUGCCACAAAGCUUGCGAGCAUCUUCGGAUGCAGAGGCGGCAGCCUUCGGUGGCGCGAUAGCGCCAACGUUCUCAACUAUGACACGCAAAACGCGUGCUCCGUUGAAUGGAGUUUAUCAUG [A20U A47C]	-0.824
GGAUCUUCUCGAUCUAACAAAAAAGACAAAUCUGCCACAGAGCUUGAGAGCAUCUUCGGAUGCAGAGGCGGCUGCCUUCGGUGGCGCGGUAGGGCCAACGUUCGCGACUAUGACACGCAAAACGCGUGCUCCGAUGAAUGGAGUUUAUCAUG [A40G A73U A89G C93G U104G A106G U134A]	≤ -4.2
GGAUCUUCUCGAUCUAACAAAAAAGACAAAUCUGCCACAAAGCUUGAAGGCAUUUUCGGAUGCAGAGGCGGCAGCCUUCGGUGGCGCGAGAUCGCCAAUGUUCUCAACUAUGACACGCAACACGCGUGCUCCGUUGAAUGGAGUUUAUCAAG [G48A A49G C54U U90G G92U C99U A121C U151A]	≤ -4.2
GGAUCUUCUCGAUCUAACAAAAAAGACAAAUCUGCCACAAAGCUUGAGAGCAUUUUCCGAUGCAGAGGCGGCAGCCUUCGGUGGAGCGAUAGCGCCAACGUUCUCAACUAUGACACGCAAAACGCGUGCUCCGUUGAAUGGAGUUUAUCAUG [C54U G58C C85A]	-2.42
GGAUCUUCUCGAUCAAACAAAAAAGACAAAUCUGCCACAAAGCUUGAGAGCAUCUUCGGAUGCAGAGGCGGCAGCCUUCGGUGGCGCGAUAGCGCCAACGUUCUCAACUAUGACACGCAAAACGCGUGCUCCGUUGAAUGGAGUCUAUCAUG [U15A U145C]	0.0727
GGAUCUUCUCGAUCUAACAAAAAAGGCAAAUCUGCCACAAAGCUUGAGAGCAUCUUCGGAUGCAGAGGCGGCAGCCUUCGGUGGCGCGAUUGCGCCAACGUUCGCAACUAUGACACGCAAACCGCGUGCUCCGUUGAAUGGAGUUUAUCAUG [A26G A91U U104G A122C]	≤ -4.2
GGAUCUUAUCGAUCUAACAAAAAAGACAAUUCUGCCACAUAGCUUGACAGCAUCUUCGGAUGCAGAGGCGGCAGCCUUCGGUGACGCGAUAGCGCCAACGUUCUCAACUAUGUCACGCAAAACGCGUGCUCAGUUGAAUGGAGUUUAUCAUG [C8A A30U A40U G48C G84A A113U C132A]	≤ -4.2
GGAUCUUGUCGAUCUAACAAAAAACACAAAUCCGCCACAAAGCUUGAGAGCAUCUUCGGAUGCAGAGGCGGCAGCCUUCGGUGGCGCGAUAGUGCCAACGUUCUCAACUAUGACACGCAAAACCCGUGCUCCGUUGAAUGGAGUUUAUCAUG [C8G G25C U33C C93U G124C]	≤ -4.2
GGUUCUUCUCGAUCUAAUACAAAAGACAACUCUGCCACAACGCUUGAGAGCAUCUUCGGAUGCAGAGGUGGCAGCCUUCGGUGGCGCGAUAGCACCAACGUUGUCAACUAUGACACGCAAAACGCGUGCUCCGUUGAAUGGAGUUUAUCAUG [A3U C18U A20C A30C A41C C69U G94A C103G]	≤ -4.2
GGAUCUUCUCGAUCUAACAAAAAAGACAAAUCUGCCACAAAGCUUGAGAGAAUCUUCGGAUGCAGAGGCGGCAGCCUUCGGUGGCGCGAUAGCGCCAACGUUCUCAACUAUGACACGCAAAACGCGUGCUCCGGUGAAUGGAGAUUAUCAUG [C51A U134G U144A]	-4.17
GGAUCUUCUCGAUCUAACAAAAAAGACAAAUCUGCCACAAAGCUUGGGAGCAUCUUCGGAAGCAGAGGCGGCAGCCUUCGGUGGCGCGAUAGCGCCAACGUUCUCAACUAUGACACGCAAAACGCGUGCUCCGUUGAAUGGAGUUUAUCAUG [A47G U61A]	-1.41
GGAUCUUCUCGAUCUAACAAAAAAGACAAACCUGCCACAAAACGUGAGAGCAUCUUCGGGUGCAGGGGCGGCAGCCUUCGGAGGAGCGAUAGCGCCAACGUUCUCAACUAUGACACGCAAAACGCGUACUCCGUUGAAUGGAGUUUAUCAUG [U31C G42A U44G A60G A66G U82A C85A G128A]	≤ -4.2
GGAUCUUCUCGAUCUAACAAAAAAGACAAAUCUGCCACAAUGCUUGAGAGCAUCUUCGGAUGCAGAGGCGGCAGCCUUCGGUGACGCGAUAGCGCUAACGUUCUCACCUAUGACACGCAAAACGCGUGCUCCGUUGAAUGGAGUUUCUCAUG [A41U G84A C96U A107C A147C]	≤ -4.2
GGAUCGUCUCGAUCUAACAAAAAAGACAAACCUGCCACAAAGCUUGAGAACAUCUUCGGAUGCAGAGGCGGCAGCCUUCGGUGGCGCGAUAGCGCCAACGUUCUCAACUAUGACACGCAAAACGCGUGCUCCGUUGAAUGGAGUUUCUCAUG [U6G U31C G50A A147C]	-2.65
GGAUCUUCUCGAUCUAACAAAAAAGACAAAUCUGACACAAAGCUUGAGAGCAUCUUCGGAUGCCGAGGCGGCAGCCUUCGGUGGCGCGAUAGCGCCAUUGUUCUCAACUAUGACACGCAAAACGCGUGCUCCGUUGAAUGGAGUUUAUCAUU [C35A A64C A98U C99U G152U]	≤ -4.2
GGAUCUUCUCGAUCUAACAAAAAAGACAAAUCUGCCACAAAGCUUGAGAGCAUCUUCGGAUGUAGAGGCGGCAGCCUUCGGUGGCGCGAUAGCGCCAACGUACGCAACUAUGACACGCAAAACACGUGCUCCGUUGAAUGGAGUUUAUCAUG [C63U U102A U104G G124A]	-2.05
